Assay results taken from the nanobody polyreactivity screen of Harvey et al. (2022).

Assay: yeast display, Sf9 membrane polyspecificity reagent, FACS + sequencing; frameworks hold sequencing errors
In short: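 A nanobody's polyreactivity label depends on the gate it was sorted from. Yeast display cells were stained with 10% biotinylated, detergent-solubilized Sf9 membrane reagent for 1 hour at 4 °C, enriched on streptavidin microbeads and sorted by FACS. The low and high (top ~1%) gates were set on anti-HA fluorescence for expression and streptavidin fluorescence for reagent binding.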

Sequence	polyreactivity (PSR sort gate)
QVQLVESGGGLVQAGGSLRLSCAASGSTFPEYAMGWYRQAPGKERELVAAISKRGGRTYYADSVKGRFTISRDNAKNTVYLQMNSLKPEETAVYYCARDSYPHGRARFDYWGQGTQVTVSS	high polyreactivity
QVQLVESGGGLVQAGGSLRLSCAASGSTFPFYAMGWYRQAPGKERELVAAITSGGSTYADSVKGRFTISRDNAKNTVYLQMNSLNPEDTAVYYCAASWPRWWRFGYWGQGTQVTVSS	low polyreactivity
QVQLVESGGGLVQAGGSLRLSCAASGSTFPGNAMGWYRQAPGKERELVAAITSSGGSTDYADSVKGRFTISRDNAKNTVYLQMNSLKPEDTAVYYCNAKDAEHYERFNYWGQGTQVTVSS	low polyreactivity
QVQLVESGGGLVQAGGSLRLSCAASGSTFPGNAMGWYRQAPGKERELVASISGGGDSTYYADSVKGRFTISRDYAKNTVYLQMNSLKPEDTAVYYCAADYRQEPGYTGYYYWGQGTQVTVSS	low polyreactivity
QVQLVESGGGLVQAGGSLRLSCAASGSTFPGNARGWSRQAPGKLRELVAAIRWSGGRTYYADSVKGRFTISRDNAKNTVYLQMNSLNPEDTAVSYCNAVSDRPIPWYYYWGQGTQVTASS	low polyreactivity
QVQLVESGGGLVQAGGSLRLSCAASGSTFPGYAMGWYRQAPGKERELVASIYTGGSTYYADSVKGRFTISRDNAKNTVYLQMNSLKPEDTAVYYCAADSYNVSSLLYYWGQGTQVTVSS	low polyreactivity
QVQLVESGGGLVQAGGSLRLSCAASGSTFPHYVMGWYRQAPGKERELVAGISWSGGSTYYADSVKGRFTISRDNAKNTVYLQMNSLKPEDTAVYYCAKVLTWRGYRYNYWGQGTQVTVSS	low polyreactivity
QVQLVESGGGLVQAGGSLRLSCAASGSTFPLNAMGWYRQAPGKERELVASINFGGGTTYYADSVKGRFTISRDNAKNTVYLQMNSLKPEDTAVYYCAADVYRGTYRRDYWGQGTQVTVSS	high polyreactivity
QVQLVESGGGLVQAGGSLRLSCAASGSTFPLYAMGLYRQAPGKERELVAAITGGGGRTYYADSVKGRFTISRDIAKNTVYLQMNSLKPEYTAVYYCNAVVYLTNYWYDYWAQGTQVTVSS	low polyreactivity
QVQLVESGGGLVQAGGSLRLSCAASGSTFPLYAMGWYRQAPGKERELVAAITWSGANTYYADSVKGRFTISRDNAKNTVYLQMNSLKPEDTAVYYCAALYYWDQPQLEFSYWGQGTQVTVSS	low polyreactivity
QVQLVESGGGLVQAGGSLRLSCAASGSTFPLYAMGWYRQAPGKERELVATISWGDGSTYYADSVKGRFTISRDTAKNTVYLQMNSLNPEETAVYYCAEDEYPDATTDATDKYYYWGQGTQVTVST	low polyreactivity
QVQLVESGGGLVQAGGSLRLSCAASGSTFPPNAMGWYRQAPGKEGELVADSSDSSTYYADSVKGRFTISRDNAKNTVYLQMNSLKPEDTAVYYCAAADAGLSSKSYGQQYDYWGQGTQVTVSS	low polyreactivity
QVQLVESGGGLVQAGGSLRLSCAASGSTFPPNAMGWYRQAPGKERELVAAISERGGSTYYADSVKGRFTISRDNAKNTVYLLMNSLKPEDTAVYYCAVDYYYLMYWGQGTQVTVSS	low polyreactivity
QVQLVESGGGLVQAGGSLRLSCAASGSTFPPNAMGWYRQARGKARELVAVISYSDGSTYYADSVNGRFTISRDNAKNTVYLQMNSLKPEDTAVYYCAAYSGYAGVSMYYWGQGTQVTVSS	low polyreactivity
QVQLVESGGGLVQAGGSLRLSCAASGSTFPPYAMGWYRPAPGKGRELVAAISYRDTGTYYADSVKGRFTISRDNAKNTVYLQMNSLKPEDTAVYYCAADYLIVYYFLYYYWGQGTPVTVSS	low polyreactivity
QVQLVESGGGLVQAGGSLRLSCAASGSTFPPYAMGWYRQAPGKERDLVADITRRGASTYYADSVKGRFTISRDNAKNTVYLQMNSLKPEDTAVYYCAARYYYQYYSGFDYWGQGTQVTVSS	high polyreactivity
QVQLVESGGGLVQAGGSLRLSCAASGSTFPRNAMGWYRQAPGKERELVAAISYSGGRTYYADSVKGRFTISRDNAKNTVYLQMNSLKPEDTAVYYCAAQPYSLVRGKSYGYWGQGTQVTVSS	high polyreactivity
QVQLVESGGGLVQAGGSLRLSCAASGSTFPRNAMGWYRQAPGKERELVATITSSAGGTYYADSVKGRFTISRDNAKNTVYLQMNSLKPEDTAVYYCNADKNGFWYTYFGRERDYWGQGTQVTVSS	low polyreactivity
QVQLVESGGGLVQAGGSLRLSCAASGSTFPSNAMGRYRQAPGKERELVAVISTSGVRTYYADSVKGRFTISRDNAKNTVYLQMNSLKPEDTAVYYCAARTRSYGGNGYRYPFDYWGQGTQVTVSS	high polyreactivity
QVQLVESGGGLVQAGGSLRLSCAASGSTFPSYAMGCYRQAPAKERELVAAINSGGGTNYADSVKGRFTISRDNAKNTVYLQMNSLKPEDTAVYYCAKSRYDYTKTEGGYWGQGTQVTVSS	low polyreactivity

Sequence	polyreactivity (PSR sort gate)
QVQLVESGGGLVQAGGSLRLSCAASGSTFPSYAMGWYRPAPGKERELVAAINSGGGTNYADSVKGRFTISRDNAKNTVYLQMNSLKPEDTAVYYCAKSRYDYTKTEGGYWGQGTQVTVSS	low polyreactivity
QVQLVESGGGLVQAGGSLRLSCAASGSTFPTKAMGWYRQAPGKERELVATITTRRSTYYADSVKGRFTISRDNAKNTVYLQMNSLKPEDTAVYYCNAEYVYLIFSVYLYDYDYWGQGTQVTVSS	low polyreactivity
QVQLVESGGGLVQAGGSLRLSCAASGSTFPTNAMGWYRPAPGKERELVATFTTGGSTYYADSVKGRFTISRDNAKNTVYLQMNSLKPVDTAVYYCNAEYVYLIFSVYLYDYDYWGQVTQVTVSS	low polyreactivity
QVQLVESGGGLVQAGGSLRLSCAASGSTFPTNAMGWYRQAPGKEREFVADITIRGGGTAYADSVKGRFTISRDNAKNTVYLQMTSLKPEDTAVYYCARSKSTELKRLLYDSWGQGTQVTVST	low polyreactivity
QVQLVESGGGLVQAGGSLRLSCAASGSTFPTNAMGWYRQAPGKERELDAGITEGGSSTYYADSVKGRFTISRDYAKNTVYLQMNSLKPEDTAVYYCAADVLWYGPFWVRQDDYWGQGTQLTVSS	high polyreactivity
QVQLVESGGGLVQAGGSLRLSCAASGSTFPTNAMGWYRQAPGKERELVAAISQRGDSTSYADSVKGRFTISRDNAKNTVYLQMNSLKPEDTAVYFCAVDAYSYYDSTWFWYDYWGQGTQVTVSS	high polyreactivity
QVQLVESGGGLVQAGGSLRLSCAASGSTFPTYAMGWYRQAPGKERELVAAITRGGSTYYADSVKGRFTISRDNAKNTVYLQMHSRKPEDTSVYYCAVYEFLGQIGKRDYWGQGTQVTVSS	low polyreactivity
QVQLVESGGGLVQAGGSLRLSCAASGSTFPTYVMGWYRQAPGKERELVASINSDTGTYYADSVKGRFTISRDNAQNTVYLQMNSLKPEDTAVYYCNARQAYYFYPFEYDYWGQGTQVTVSS	low polyreactivity
QVQLVESGGGLVQAGGSLRLSCAASGSTFPVYAMGWYRQAPGKERELVASISSGADTNYADSVKGRFTISRDNAKNTVYLQMNSLKPEDTAVYYCAATVPLRTIRPRSYGYWGQGTQVTVSS	low polyreactivity
QVQLVESGGGLVQAGGSLRLSCAASGSTFPWNAMGWYRQAPGKERELVAAINYGNGSTYYADSVKGRFTISRDNAKNTVYLQMNSLKPEDTAVYYCNADYTGTRTDSVTPEYEYWGQGTQVTVSS	low polyreactivity
QVQLVESGGGLVQAGGSLRLSCAASGSTFPYNAMGWYRQAPGKERELVAAITGRGGSTYYADSVKGRFTISRDNAKNTVYLQMNSLKPEDTAVYYCGADFWYSYYYWGQGTQVTVSS	high polyreactivity
QVQLVESGGGLVQAGGSLRLSCAASGSTFPYYAMGWYRQAPGKERELVAAISRGDSTNYADSVKGRFTISRDNAKNTFYLQMNSLKTEDTAVYYCAARLQYRRTSVKYYYWGQGTQVTVSS	high polyreactivity
QVQLVESGGGLVQAGGSLRLSCAASGSTFPYYAMGWYRQAPGKERELVAAISWRGTRTYYADSVKGRFTISRDNAKNTVYLQMNSLKPEDTAVYYCNAYHTPEYQEGGYYWGQGTQVTVSS	high polyreactivity
QVQLVESGGGLVQAGGSLRLSCAASGSTFPYYAMGWYRQAPGKERELVASIRKRGGGTYYADSVKGRFTISRDNAKNTVYLQMNSLKPEDTAVYYCAVRVYQFRYTGYDYWGQGTQVTVSS	high polyreactivity
QVQLVESGGGLVQAGGSLRLSCAASGSTFPYYDMGWYRQAPGKERELVAAISWSGDSTYYADSVKGRFTISRDNAKNTVYLQMNRLKPEDTAVYYCAAYSDYWSYLSTDDYWGQGTQVTVSS	low polyreactivity
QVQLVESGGGLVQAGGSLRLSCAASGSTFPYYVMGRYRQAPGKERELVAAITRSTGTTYYADSVKGRFTISRDNAKNTVYLQMNSLKPEDTAVYYCAARSSSSPRWYGGDYWGQGTQVTVSS	low polyreactivity
QVQLVESGGGLVQAGGSLRLSCAASGSTFQAKAMGWYRQAPGKERELVAAISWRGSSTYYADSVKGRFTISRDNAKNTVYLQMNSLKPEDPAVYYCAAASSGSYYRYEYWGQGTQVTVSS	high polyreactivity
QVQLVESGGGLVQAGGSLRLSCAASGSTFQANAMGWYRQAPGKERELVAAISSRGGITYYADSVKGRFTISRDNAKNTVYLQMNSLKPEYTAVYYSNALPRCTYRQGLGVRLYYWGQGTQVTVSS	high polyreactivity
QVQLVESGGGLVQAGGSLRLSCAASGSTFQFYAMGWYRQAPGKEREFVAAITTRSGSTYYADSVKGRFTISRDTAKNTVYLQMNSQKPEDTAVYYCAAYIYGHSSDSVRYEYWGQGTQVTVSS	low polyreactivity
QVQLVESGGGLVQAGGSLRLSCAASGSTFQGKAMGWYRQAPGKERELVATINNDGSTYYADSVKGRFTISRDNAKNTVYLQMNSLKPEDTAVYYCAADVHRVVLEYDYWGQGTQVTVSS	low polyreactivity
